In US20220363758A1 (SORRENTO THERAPEUTICS, published 2022):
Substitutions are numbered along the chain they refer to. “And” between values parts separate entries of the source, which are not always exact repeats. Equal entries are not always repeated. Blank lines part the entries; values can stand above or below the binder they belong to.

Columns and labels:
[1] = molecular target: T1, Recombinant human CD38-his tag (human, UniProt P28907 43-300); assay: SPR (Biacore T200), 1:1 binding model; antigen not named on the sheet, taken as recombinant human CD38-his from Example 9
T1 construct: also called recombinant CD38 antigen; CD38 antigen; not shown: his tag

[2] = molecular target: T1, Recombinant human CD38-his tag; assay: SPR (Biacore T200), 1:1 binding model; antigen not named on the sheet, taken as recombinant human CD38-his from Example 9; row printed 'BZ1 Pool2 PA', assigned to BZ1S through legends paragraph 161 and paragraph 163
Description: Kinetic interactions between bispecific antibodies and CD38 antigen were measured at 25° C. using Biacore T200 surface plasmon resonance (GE Healthcare). Anti-human fragment crystallizable (Fc) antibody (Human Antibody Capture Kit) was immobilized on a Series S CM5 sensor chip to approximately 10000 RU using standard N-Hydroxysuccinimide/1-ethyl-3-(-3-dimethylaminopropyl) carbodiimide hydrochloride (NHS/EDC) coupling methodology. Antibodies (bispecific or mAb, approximately 2 μg/mL) were captured for 60 seconds at a flow rate 10 μL/min. Recombinant human CD38-his tag was serially diluted in running buffer (1×HBS-EP+). All measurements were conducted with a flow rate of 30 μL/min. Surfaces were regenerated with 3M MgCl₂ for 60 s. A 1:1 (Langmuir) binding model was used to fit the data.
Biacore binding kinetics of the CD38×CD3 bispecific antibodies towards each individual antigen as the first and sole binding event were obtained for the target combination: CD38/CD3. The bispecific antibody was immobilized onto a biosensor surface via amine coupled anti human Fc antibodies on a CM5 sensor chip (GE Healthcare) according to the manufacturer's recommendation. […] Some kinetics analysis of the parental mAb (anti-CD38) was performed with 200 seconds association phase and 300 seconds dissociation phase.

Kd [1]: 1080 pM and 960 pM
koff [1]: 0.00213 s⁻¹ and 0.00205 s⁻¹
kon [1]: 1.97e+06 M⁻¹ s⁻¹
B1: BZ1 heterodimeric antibody (bispecific antibody, human IgG1, lambda, L234A L235A)
chain: QVQLVQSGAEVKKPGASVKVSCKASGYTFISYTMHWVRQAPGQGLEWIGYINPRSGYTHYNQKLKDRATLTADKSASTAYMELSSLRSEDTAVYYCARSAYYDYDGFAYWGQGTLVTVSSGGGGSGGGGSGGGGSGGGGSDIQMTQSPSSLSASVGDRVTITCSASSSVSYMNWYQQKPGKAPKRLIYDTSKLASGVPSRFSGSGSGTDFTLTISSLQPEDFATYYCQQWSSNPPTFGGGTKVEIKGGGGSDKTHTCPPCPAPEAAGGPSVFLFPPKPKDTLMISRTPEVTCVVVDVSHEDPEVKFNWYVDGVEVHNAKTKPREEQYNSTYRVVSVLTVLHQDWLNGKEYKCKVSNKALPAPIEKTISKAKGQPREPQVYTLPPSREEMTKNQVSLSCAVKGFYPSDIAVEWESNGQPENNYKTTPPVLDSDGSFFLVSKLTVDKSRWQQGNVFSCSVMHEALHNHYTQKSLSLSPGK
heavy: QVQLVESGGGLVKPGGSLRLSCAASGFTFSDDYMSWIRQAPGKGLEWVASVSNGRPTTYYADSVRGRFTISRDNAKNSLYLQMNSLRAEDTAVYYCAREGWSGEFTDWGQGTLVTVSSASTKGPSVFPLAPSSKSTSGGTAALGCLVKDYFPEPVTVSWNSGALTSGVHTFPAVLQSSGLYSLSSVVTVPSSSLGTQTYICNVNHKPSNTKVDKRVEPKSCDKTHTCPPCPAPEAAGGPSVFLFPPKPKDTLMISRTPEVTCVVVDVSHEDPEVKFNWYVDGVEVHNAKTKPREEQYNSTYRVVSVLTVLHQDWLNGKEYKCKVSNKALPAPIEKTISKAKGQPREPQVYTLPPSREEMTKNQVSLWCLVKGFYPSDIAVEWESNGQPENNYKTTPPVLDSDGSFFLYSKLTVDKSRWQQGNVFSCSVMHEALHNHYTQKSLSLSPGK
light: not shown
notes: Isotype IgG1/LALA, knob-in-hole; also called BZ1 bispecific antibody

Kd [2]: 909 pM
koff [2]: 0.00194 s⁻¹
kon [2]: 2.14e+06 M⁻¹ s⁻¹
B2: BZ1S (bispecific antibody, human IgG1, lambda, L234A L235A)
first polypeptide (anti-CD3 scFv-Fc fusion): B1 chain
second polypeptide (anti-CD38 heavy chain): B1 heavy with N53S
third polypeptide (anti-CD38 light chain): not shown
notes: also called BZ1S heterodimeric antibody; BZ1S bispecific antibody
